Experimental findings from patent WO2009150539A2 (dated 2009) are described below.

Assay [1] addresses T1, AahII toxin of Androctonus australis hector (Androctonus australis hector, UniProt P01484 20-83).
T1 construct: mature; also called Aahll
T1 sequence: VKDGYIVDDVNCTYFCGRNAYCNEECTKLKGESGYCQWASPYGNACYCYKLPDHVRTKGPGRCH
Nature of the assay: SPR (BIAcore), AahII immobilised on CM5 chip, Nb in mobile phase. In general terms: In SPR one partner is held on a chip, and binding of the other changes the refractive index at the surface.

The target of assay [2] is T1, AahII toxin of Androctonus australis …. Nature of the assay: cell-based or functional assay.
The target is the same in assay [3]. Nature of the assay: phage ELISA on coated AahII, Nb displayed on phage. (In general: In an ELISA, binding on a coated surface is turned into a signal by an enzyme label.)

Where a chain is given by its changes, count along the chain named. Where “and” joins values, the source holds several entries; their conditions need not be identical. Equal entries are not always repeated.

B1: NbAahII38 (VHH)
VHH: DVQLVESGGGLVQPGGSLRLSCAASGFTFSNYVMSWVRQAPGKGLEWVSGINHGGGIQDYADSVKGRFTISRDNAKNTLYLQLNSLKIEDTAMYYCVRASHYRDYGPTIYSWGQGTQVTVSS
notes: also called cluster H
What is called Kd is the equilibrium constant for the complex coming apart. A higher Kd goes with weaker binding. By koff is commonly meant the first-order rate constant of dissociation. Read a low koff as slow dissociation. The term kon denotes the rate constant with which the complex forms. In assay [1], B1 gave a Kd of 76 nM, a koff of 0.000781 s⁻¹ and a kon of 10200 M⁻¹ s⁻¹. In assay [2], the “Survivors/Injected mice; i.c.v.; AahII:Nb 1:2; 2 LD50/mouse; 24 ng Nb/mouse” value is 1 survivors of 4 mice and the “Survivors/Injected mice; i.c.v.; AahII:Nb 1:2; 3 LD50/mouse; 36 ng Nb/mouse” value was 0 survivors of 4 mice.

B2: NbAahII48 (VHH)
VHH: QVQLVESGGGSVQAGGSLRLSCAASGYTCTKFNMGWYRQAPGKEREFVATIRRDSTIYYADSVKGRFTISQDNAKNMVYLQMTSLKPEDSAMYYCSTRCVTSSVPYWGQGTQVTVSS
Take B2: the binding result in assay [3] is recorded as “binds”.

B3: NbAahII10 (VHH)
VHH: QVQLVESGGGSVQAGGSLKLSCAASGYFYSSNYCLGWFRQAPGKEREGVAQINIAPGRIYYADSVKGRFTISRDNAKNTVYLQMDSLKPEDTAIYYCASTAGNMYYGLRGPADFDYWGQGTQVTVSS
notes: also called NbAahIIlO; NbAahII lO
In assay [1], B3 came in with a Kd of 0.49 nM, a koff of 0.000569 s⁻¹ and a kon of 1.14e+06 M⁻¹ s⁻¹. In assay [2], the “NC = (LD50 with Nb - LD50 without Nb)/Nb; i.c.v.; AahII:Nb 1:4” value is 37000 LD50/mg and 555 LD50/nmol; the “Survivors/Injected mice; i.c.v.; AahII:Nb 1:4; 2 LD50/mouse; 48 ng Nb/mouse” value is 4 survivors of 4 mice; the “Survivors/Injected mice; i.c.v.; AahII:Nb 1:4; 3 LD50/mouse; 72 ng Nb/mouse” value was 4 survivors of 4 mice; the “neutralizing capacity, i.c.v., toxin/Nb ratio 1/4” value was roughly 37500 LD50/mg.

B4: NbAahII45 (VHH)
VHH: QVQLQESGGGSVQAGGSLKLSCAASGYFYSSNYYMAWFRQAPGKEREGVAHINRSGRITLYADSVKGRFTMSRDNAKNTVYLQMNSLKPEDTAIYYCAAGVRTHMPPLASYGFDYWGQGTQVTVSS
With B4, the binding result in assay [3] is recorded as “binds”.

B5: NbAahII3 (VHH)
VHH: QVQLVESGGGSVQAGGSLRLACAASGVTLSDYCMGWFRQAPGKEREGVAAIKDRGSISYYADSVKGRFTISKDNAKNTMYLQMNRLNSEDTAMYYCAVTRNSCLGLAKFRPPSYNYWGQGTQVTVSS
notes: also called NbAahID; NbAahIB
Consider B5, for which, in assay [3], the binding result was “binds”.

B6: NbAahII19 (VHH)
VHH: QVQLQESGGGLVQPGGSLRLSCAASGFSFNIYAMSWVRQAPGKQFEWVSGIHPDGRSTYYTDSVKGRFTISRDNAKNTLYLQLDSLKTEDTAMYYCAKGVLTKYVGSARGQGTQVTVSS
notes: Purified from E. coli periplasm with His6; also called cluster I
In assay [1], B6 had a Kd of 2.39 nM, a koff of 0.013 s⁻¹ and a kon of 5.46e+06 M⁻¹ s⁻¹. In addition, in assay [2], the “Survivors/Injected mice; i.c.v.; AahII:Nb 1:4; 2 LD50/mouse; 48 ng Nb/mouse” value was 4 survivors of 4 mice and the “Survivors/Injected mice; i.c.v.; AahII:Nb 1:4; 3 LD50/mouse; 72 ng Nb/mouse” value is 4 survivors of 4 mice.

B7: NbAahII17 (VHH)
VHH: DVQLVESGGGSVQAGGSLRLSCAASGVTLNNYCVGWFRQAPGKEREGVAAFKSGGSFTYYADSVKGRFTISKDNAKNTMYLQMNSLNSDDTAMYYCAVTRNSCLGLAKFRPSSYNYWGQGTQVTVSS
notes: also called cluster D
In the case of B7, in assay [1], the Kd amounted to 0.61 nM, the koff was 0.00376 s⁻¹ and the kon was 6.12e+06 M⁻¹ s⁻¹. In addition, in assay [2], the “Survivors/Injected mice; i.c.v.; AahII:Nb 1:2; 2 LD50/mouse; 24 ng Nb/mouse” value is 0 survivors of 4 mice.

B8: NbAahII32 (VHH)
VHH: B7 VHH with D1Q, V5Q, V27L, V34I, F51L, K72R, N84S, D89E
Consider B8, for which, in assay [3], the binding result is listed as “binds”.

B9: NbAahII11 (VHH)
VHH: B7 VHH with D1Q, V5Q, V27L, V34I, F51L, K72R, N84S, D89E
notes: also called NbAaWI 1 1; NbAahIIl l
On to B9, for which the binding result in assay [3] is “binds”.

B10: NbAahII6 (VHH)
VHH: B7 VHH with D1Q, V5Q, V27A, V34L, D89E, N101H
notes: also called NbAahllό
Consider B10, for which the binding result in assay [3] is recorded as “binds”.

B11: NbAahII16 (VHH)
VHH: HVQLVESGGGSVQAGGSLRLSCAASGYTFSNYRMGWFRRAPGKECELVSTILTDGSTNYADSVKGRFTISRDNAKNTVYLLMNNLKAEDTAVYYCAAGNSRKGYLRRCGGTDFGYWGQGTQVTVSS
notes: also called NbAahlllό
For B11, the binding result in assay [3] is on record as “binds”.
